Experimental data reported in patent publication US5534418.

Test system: T3 receptor (thyroid hormone receptor, GC2 pituitary cell nuclear extract) (Rattus norvegicus)
Assay: pulldown
Conditions: equilibrium binding constant printed as 1.4x10^-9 M, ABCD assay, poly(dI-dC), 22 C, data not shown

Substance: G209-146 rat GH enhancer probe
- Kd: 1.4 nM
